Results published in patent US20210205445A1.

Target: Dectin-2 on murine bone marrow-derived dendritic cells (mouse) (UniProt Q9JKF4)
Test: cell-based or functional assay

UniProt Q9JKF4, sequence (Q9JKF4 whole entry): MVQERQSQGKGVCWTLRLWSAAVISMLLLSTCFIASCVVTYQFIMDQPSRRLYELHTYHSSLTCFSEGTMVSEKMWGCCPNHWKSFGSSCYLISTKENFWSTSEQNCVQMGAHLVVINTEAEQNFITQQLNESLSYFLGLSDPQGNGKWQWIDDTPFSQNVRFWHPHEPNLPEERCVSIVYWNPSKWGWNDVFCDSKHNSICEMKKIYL

For “recombinant Bl-Eng2 (Blastomyces dermatitidis Eng2 expressed in Pichia pastoris, C-terminal Myc-6xHis tag) (ligand)”, the Ligand induced IL-6 production by murine BMDC, against Furfurman, Man-Lam and MP98 was greater than 100 fold.
